Data published in patent publication US20020147326A1, “Hexameric fusion proteins and uses therefor” (SmithKline Beecham Corporation, priority 1996, published 2002).

Legend:
CD28-Ig [1] = target: T1, CD28-Ig (Homo sapiens, UniProt P10747); assay: ELISA binding of biotinylated fusion proteins to immobilized CD28-Ig; set-up: native leader and extracellular domain peptide of CD28 and CD80 were grafted onto a human IgG1 heavy chain Fc region; human IgG1 Fc (hinge/CH2/CH3); made in house; host or cells: CHO cells; conditions: for binding to immobilized CD28-Ig: biotinylated protein, ELISA
Method: For this assay format, the CD80-Igαtp protein was biotinylated for simplicity of assay and for ease of detection since the CD28 protein absorbed to the plate wells was also a human Ig fusion construct. Biotinylation was carried out essentially as described in Avidin-Biotin Chemistry: A handbook, M. D. Savage et al., Pierce Chemical Company (1992). […] All steps of the assay after coating were carried out at room temperature.
The wells of 96 well microtiter plates (Immunlon 4, Dynatech Laboratories) were coated with CD28-Ig (1, 2, or4 μg/ml) in 100 μl/well of 0.1 M sodium bicarbonate, pH 9.4 and incubated overnite @4° C. The wells were washed with PBS (phosphate buffered saline) and blocked with 0.5% gelatin in PBS for 1 hour. Following an additional PBS wash, biotinylated CD80-Igαtp was serially diluted in PBS containing 1 mg/ml BSA, 0.05% Tween directly in the wells in a final volume of 0.1 ml and incubated for 1 hour. The wells were washed with PBS and bound CD80-Igαtp protein was measured by the addition of 0.1 ml of strepavidin-HRP (streptavidin conjugated with horseradish peroxidase (Southern Biotech)) at a 1:2000 dilution for 1 hour, followed by washing and color development with 100 μl ABTS substrate (Kierkegaard and Perry Laboratories Inc., Maryland) and measurement of absorbance at 405 nm. In some cases the color reactions were arrested by addition of 100 μl of 1% SDS prior to measurement of absorbance. In this figure, “CD28-Fc”, “CTLA4-Fc”, and “B7-FcA” denote CD28-Ig, CTLA4-Ig, and CD80-Igαtp, respectively.

CD28-Ig [2] = target: T1, CD28-Ig; assay: Isothermal titration calorimetry, binding to CD28-Ig in solution; set-up: native leader and extracellular domain peptide of CD28 and CD80 were grafted onto a human IgG1 heavy chain Fc region; human IgG1 Fc (hinge/CH2/CH3); made in house; host or cells: CHO cells
Source text: The solution binding properties of the hexameric and standard Ig fusion proteins of CD80 and CD86 were compared using isothermal titration calorimetry, essentially as described previously for other proteins [K. Johanson et. al., J. Biol. Chem, 270: 9459-9471 (1995), and references therein].
This lower affinity for CD28 than for CTLA4 is in agreement with other reports [P. S. Linsley et. al., Immunity 1: 793-801 (1994)].

[3] = target: T2, human CD28 on PCD28.1.s2.1 cells (Homo sapiens, UniProt P10747); assay: Flow cytometry binding to cells expressing cell-surface CD28; format: cell-based; conditions: on ice
T2 construct: expressed in transfected cells; host or cells: PCD28.1.s2.1 (PE30.2 murine T-cell hybridoma transfected with pHbactCd28neo)
Method: Non-adherent CD28 expressing cells (PCD28.1.s2.1) were used for this assay format. PCD28.1.S2.1 cells were created by transfection of PE30.2 cells [D. Emilie et al., Eur. J. Immunol., 19:1619-1624 (1989)] with a vector for expression of human CD28 [D. Couez et al., Molecular Immunology, 31:47-57 (1994)]. All incubations were carried out on ice. Unlabelled CD80- and CD86-Igαtp or CD80 and CD86-Ig were incubated with the cells in binding buffer consisting of PBS w/o Ca+2/Mg+2, 0.2% bovine serum albumin and 0.1 % sodium azide. After washing twice in binding buffer, bound fusion proteins were detected with a 1:2000 dilution of a goat anti-human polyclonal antibody labeled with FITC (Flourescein isothiocyanate, Southern Biotech). Following two additional washes in binding buffer, the cells were resuspended in binding buffer and analyzed on a FACSort analyzer (Becton-Dickinson) using a 488 nm laser.

Substance	saturation of OD405 (CD28-Ig [1]; biotinylated CD80-Igαtp at 50 μg/ml)	binding to immobilized CD28-Ig (CD28-Ig [1])	interaction with CD28-Ig in solution by calorimetry (CD28-Ig [2])	binding to CD28 positive cells [3]
CD80-Igαtp: CD80 leader and extracellular domain linked to human IgG1 hinge/CH2/CH3 and terminating in human IgA1 tailpiece (αtp)	about 50%	concentration dependent binding	did not show detectable binding	specific binding
CD86-Igαtp: CD86 leader and extracellular domain linked to human IgG1 Fc and terminating in human IgA1 tailpiece (αtp)	–	good binding	did not show detectable binding	specific binding
CD80-Ig: CD80 leader and extracellular domain grafted onto human IgG1 heavy chain Fc region; monomeric Ig fusion (Ig homodimer) [reference compound]	–	little binding and only at much higher concentrations	not detected	no binding
